The results in this text go back to the supplement of paper PMC10724198.

± gives the standard deviation of the averaged measurements.
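Note: PSI is a weighted mean of sequencing reads over stability bins, variants kept only with over 10 reads, mCherry proximal and sfGFP distal, peptide attached via GGGS linker.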

The subject of this series is Saccharomyces cerevisiae. The series can be described thus: protein stability index of tFT-peptide fusion (C-terminal peptide) (PSI (0-1 scale)); higher = more stable (slower turnover). The conditions noted are these: genetic background: wild type; temperature: 30 C.
NERTETVHQGTP yielded a protein stability index of 0.691 ± 0.045.
For NFCSSGLPLLII, the protein stability index worked out at 0.648 ± 0.022.
Next, NFLPSAARTRTP: 0.6758 ± 0.0023.
Next, NFPVLLSISALL: 0.548 ± 0.072.
Next, NGGERQDGGKHR: 0.648 ± 0.034; NGKGARSGETRT: 0.647 ± 0.057.
Consider NGTGGVEGPQTL, for which the protein stability index worked out at 0.659 ± 0.025.
Then NHTLPGTRSSVW, with 0.684 ± 0.09.
Then NIIADTHARRRF, with 0.748 ± 0.11.
Next, NIKEKRNKKKRR: 0.677 ± 0.073; NINITQNVKNIK: 0.716 ± 0.06; NIPESSVSKLSK: 0.678 ± 0.026.
In turn, NIRYRQKEKKND registered a protein stability index of 0.573 ± 0.031.
Next, NKDGIKKKKYNK: 0.668 ± 0.032.
Then NKFLRSVVRKHE, with 0.671 ± 0.011; and NKFNTINQNREV, with 0.678 ± 0.04.
Next, NKHDGRKWARYK: 0.6494 ± 0.00069; NKKETRKQKTKK: 0.673 ± 0.017.
NKKGMSIWANER returned a protein stability index of 0.68915 ± 0.0002.
NKKIYRTKIKKL registered a protein stability index of 0.5917 ± 0.00069.
Next, NKKKKHTQYKRK: 0.694 ± 0.0077; NKKQTKKKRKNK: 0.731 ± 0.037; NKLYDESLALYP: 0.704 ± 0.044.
NKNGGDLCLGSS came in with a protein stability index of 0.652 ± 0.049.
Next, NKTIVNNVKIRY: 0.574 ± 0.0065.
Next, NKVRDKTQLKIE: 0.78 ± 0.094; NLCRLGHTAGVL: 0.753 ± 0.086.
Next, NLKLIRSEYNLN: 0.658 ± 0.042; NLRKGHSDERVV: 0.691 ± 0.071.
As to NLRSIYKLGRLT, the protein stability index came to 0.549 ± 0.011.
In the case of NLRVANLAQRTE, the protein stability index is 0.703 ± 0.05.
Then NLSLPSPPLTTN, with 0.731 ± 0.0082.
Then NMIKNNKWDINR, with 0.7 ± 0.074; and NMYQQIESEYSK, with 0.676 ± 0.045; and NNEKIEQRYSMK, with 0.711 ± 0.019.
Next, NNRIRNIISIRK: 0.743 ± 0.04.
In turn, NPFCPILPFALL had a protein stability index of 0.853 ± 0.069.
Next, NPLDRQNCTCGE: 0.656 ± 0.13; NPLKAGFLVVTT: 0.6508 ± 0.0032; NPPPSPALLSRP: 0.809 ± 0.06.
Then NPSSKVIALWKI, with 0.556 ± 0.046.
Next, NPTPPNLRSNLF: 0.6877 ± 0.0055.
As to NPVFPPPPHSQL, the protein stability index was 0.75 ± 0.18.
Next, NPWTHVPGRQNH: 0.731 ± 0.054; NQPPFPLRRPPT: 0.699 ± 0.048.
Then NRCGGACGRQAG, with 0.711 ± 0.027.
Next, NRCIRIQETVRI: 0.619 ± 0.053; NRFFFRHGCVVF: 0.691 ± 0.031; NRNSHSGKIKLK: 0.691 ± 0.049.
Turning to NRVHLPELAFIT, the protein stability index amounted to 0.662 ± 0.014.
As for NRVPKKPAHLQQ, the protein stability index worked out at 0.647 ± 0.013.
Next, NSCVFCLCHDLA: 0.6991 ± 0.006; NSGKPWTLGRQE: 0.701 ± 0.043.
Next, NSPTYEEKERHL: 0.82 ± 0.15.
Turning to NSRDCILQARET, the protein stability index stood at 0.713 ± 0.012.
NTMVPPTGSGNA had a protein stability index of 0.732 ± 0.13.
Then NTPNRNFTYTEN, with 0.685 ± 0.038; and NTRIKGERNILH, with 0.702 ± 0.026.
Next, NTRKNTTRKSQE: 0.637 ± 0.042.
Consider NVYSVRGPWYGG, for which the protein stability index was 0.6604 ± 0.0059.
Next, NYRPAHSFGVIS: 0.725 ± 0.018; NYSKPSYLVRAK: 0.697 ± 0.053; PAAPLPPTPPPP: 0.708 ± 0.0082.
Next, PAAPPHGFPPPR: 0.6341 ± 0.0046; PACSPLPPLPLS: 0.7 ± 0.018; PADPRSSPPVQQ: 0.691 ± 0.02.
Next, PAGFQTPPLVHD: 0.708 ± 0.091; PAHPHPYHPSLH: 0.6265 ± 0.0042; PAHPPPPATPCP: 0.6817 ± 0.0063.
For the sequence PAHPSDIGAAAP, the protein stability index came out at 0.675 ± 0.042.
Then PAHSYPILASGH, with 0.675 ± 0.034; and PALKQEGRPEHS, with 0.6942 ± 0.0053; and PALLTICRTSLP, with 0.64 ± 0.00076.
In the case of PALPPPFPPFSP, the protein stability index was 0.72 ± 0.084.
Next, PALPPPPPSPPL: 0.676 ± 0.15; PALPPPSLPPPP: 0.6718 ± 0.0023; PALTSSGPPPLV: 0.741 ± 0.096.
Then PANQVKTILGRL, with 0.694 ± 0.11; and PAPALPPPSSPP, with 0.69 ± 0.0095.
Then PAPAPPPPAVPL, with 0.612 ± 0.018.
PAPAPSPSFRDH returned a protein stability index of 0.708 ± 0.094.
Then PAPASDYLRGRR, with 0.691 ± 0.049; and PAPPPPPLPPPP, with 0.615 ± 0.041; and PAPPPPPPRPPP, with 0.669 ± 0.071.
Next, PAPPPPPRPPPS: 0.655 ± 0.008; PAPPSPPPPLYP: 0.721 ± 0.046; PAPPSPSPPPPL: 0.836 ± 0.14.
In turn, PAPPTPPPPLYP showed a protein stability index of 0.715 ± 0.015.
PAPPVFVPSLPL came in with a protein stability index of 0.801 ± 0.029.
Sequence PAPRLEPRSPNV registered a protein stability index of 0.676 ± 0.021.
With PAPSAPLLRTRP, the protein stability index came out at 0.6702 ± 0.0019.
For PAPSLPPPRLAP, the protein stability index came to 0.653 ± 0.026.
Next, PAPSPLVLFFGF: 0.692 ± 0.03; PAPSRRTVTDYW: 0.654 ± 0.015.
PARTPSPPAPSH: the protein stability index amounted to 0.657 ± 0.056.
Next, PASASVHPRILC: 0.559 ± 0.05; PASLPPSPPLLL: 0.696 ± 0.039.
Then PASPPTSPRSVP, with 0.742 ± 0.022; and PASRNWGLNPDT, with 0.677 ± 0.025.
In turn, PATRFSPPSSLS registered a protein stability index of 0.745 ± 0.028.
With PAVGPDGTIRPL, the protein stability index amounted to 0.706 ± 0.037.
For the sequence PAWVEARWLCRG, the protein stability index was 0.764 ± 0.069.
Next, PAYLMDRGYIMT: 0.613 ± 0.031; PAYVSTLPPLLL: 0.694 ± 0.086; PCFLLPLPHTPP: 0.707 ± 0.024.
Then PCIKHNSSLIGP, with 0.701 ± 0.081; and PCPAPLPPPAPP, with 0.619 ± 0.0098.
Next, PCPLAHSLWLMF: 0.612 ± 0.056; PCPPARSSLALS: 0.636 ± 0.051.
PCPSPPALPLAP displayed a protein stability index of 0.696 ± 0.056.
Next, PCTGSKRRSLKS: 0.717 ± 0.055.
Then PCTPLPRPRTSR, with 0.702 ± 0.065.
Then PCYSFSSSPPRL, with 0.693 ± 0.016; and PDERMVIPAIRD, with 0.665 ± 0.12.
PDHFPSPALPTH: the protein stability index was 0.702 ± 0.0097.
In turn, PDPPSPSPFPAP displayed a protein stability index of 0.724 ± 0.049.
